Measurements reported in patent US20050181059A1, “Nanoparticulate therapeutic biologically active agents” (Spherics, Inc., priority 2003, published 2005).

Tests used:
[1] = in vivo
Protocol: In a separate study, the bioavailability for non-encapsulated insulin was tested.

[2] = BCA analysis of protein concentration of redissolved hIL-12; type: physicochemical; conditions: BCA assay, resolubilized in 10 mM PBS
Protocol: Recombinant Human Interleukin-12 (hIL-112) was obtained from Genetics Institute and tBA from EM Science. hIL-12 (500 microliters at 2.79 mg/ml) was injected into tBA (5 ml). A fine precipitate formed immediately. The dispersion was rapidly frozen in liquid nitrogen (15 minutes) and the solvent removed by lyophilization for 48 hours. The resulting powder was visualized by SEM. The stability following micronization was assayed by SDS-PAGE (Invitrogen) and BCA (Pierce) assay of hIL-12 resolubilized in 10 mM PBS according to manufacturer's instructions.
SDS-PAGE (denaturing, non-reducing) analysis was used to compare tBA-treated hIL-12 particles with the control stock, with and without lyophilization. […] This was confirmed by […] acid (BCA) analysis of protein concentration of hIL-12 redissolved after lyophilization alone, or after micronization followed by lyophilization. The lyophilized-only protein was 99% soluble, while the micronized protein was 71% soluble. Thus a disagreggating agent should be included to prevent aggregation when micronizing hIL-12 using tBA.

[3] = SDS-PAGE stability following micronization; type: physicochemical; conditions: denaturing, non-reducing; resolubilized in 10 mM PBS

Substance | bioavailability [1] | soluble protein after redissolving [2] [%] | aggregation by SDS-PAGE [3]
Non-encapsulated insulin: non-encapsulated insulin tested for bioavailability in a separate study | less than 1% |  | 
lyophilized-only hIL-12: hIL-12 control stock redissolved after lyophilization alone |  | 99 | did not produce irreversible aggregation
micronized hIL-12: Recombinant Human Interleukin-12 injected into tBA, frozen and lyophilized |  | 71 | irreversibly denatured and aggregated into dimers, trimers, and aggregates too large to enter the gel
